The values that follow come from IntAct's records for PubMed 31695625.

B1: Solute carrier family 2, facilitated glucose transporter member 9 (Homo sapiens), Q9NRM0-2 (parent)
chain: MKLSKKDRGEDEESDSAKKKLDWSCSLLVASLAGAFGSSFLYGYNLSVVNAPTPYIKAFYNESWERRHGRPIDPDTLTLLWSVTVSIFAIGGLVGTLIVKMIGKVLGRKHTLLANNGFAISAALLMACSLQAGAFEMLIVGRFIMGIDGGVALSVLPMYLSEISPKEIRGSLGQVTAIFICIGVFTGQLLGLPELLGKESTWPYLFGVIVVPAVVQLLSLPFLPDSPRYLLLEKHNEARAVKAFQTFLGKADVSQEVEEVLAESRVQRSIRLVSVLELLRAPYVRWQVVTVIVTMACYQLCGLNAIWFYTNSIFGKAGIPPAKIPYVTLSTGGIETLAAVFSGLVIEHLGRRPLLIGGFGLMGLFFGTLTITLTLQDHAPWVPYLSIVGILAIIASFCSGPGGIPFILTGEFFQQSQRPAAFIIAGTVNWLSNFAVGLLFPFIQKSLDTYCFLVFATICITGAIYLYFVLPETKNRTYAEISQAFSKRNKAYPPEEKIDSAVTDGKINGRP
B2: Solute carrier family 2, facilitated glucose transporter member 9 (Homo sapiens), Q9NRM0-1 (parent)
chain: MARKQNRNSKELGLVPLTDDTSHAGPPGPGRALLECDHLRSGVPGGRRRKDWSCSLLVASLAGAFGSSFLYGYNLSVVNAPTPYIKAFYNESWERRHGRPIDPDTLTLLWSVTVSIFAIGGLVGTLIVKMIGKVLGRKHTLLANNGFAISAALLMACSLQAGAFEMLIVGRFIMGIDGGVALSVLPMYLSEISPKEIRGSLGQVTAIFICIGVFTGQLLGLPELLGKESTWPYLFGVIVVPAVVQLLSLPFLPDSPRYLLLEKHNEARAVKAFQTFLGKADVSQEVEEVLAESRVQRSIRLVSVLELLRAPYVRWQVVTVIVTMACYQLCGLNAIWFYTNSIFGKAGIPPAKIPYVTLSTGGIETLAAVFSGLVIEHLGRRPLLIGGFGLMGLFFGTLTITLTLQDHAPWVPYLSIVGILAIIASFCSGPGGIPFILTGEFFQQSQRPAAFIIAGTVNWLSNFAVGLLFPFIQKSLDTYCFLVFATICITGAIYLYFVLPETKNRTYAEISQAFSKRNKAYPPEEKIDSAVTDGKINGRP

Variants of B1 are the subject of one assay. The note with it: with itm2b_human ITM2B.
Regarding MKLSKKDRGEDEESDSAKKKLDWSCSLLVASLAGAFGSSFLYGYNLSVVNAPTPYIKAFYQESWERRHGRPIDPDTLTLLWSVTVSIFAIGGLVGTLIVKMIGKVLGRKHTLLANNGFAISAALLMACSLQAGAFEMLIVGRFIMGIDGGVALSVLPMYLSEISPKEIRGSLGQVTAIFICIGVFTGQLLGLPELLGKESTWPYLFGVIVVPAVVQLLSLPFLPDSPRYLLLEKHNEARAVKAFQTFLGKADVSQEVEEVLAESRVQRSIRLVSVLELLRAPYVRWQVVTVIVTMACYQLCGLNAIWFYTNSIFGKAGIPPAKIPYVTLSTGGIETLAAVFSGLVIEHLGRRPLLIGGFGLMGLFFGTLTITLTLQDHAPWVPYLSIVGILAIIASFCSGPGGIPFILTGEFFQQSQRPAAFIIAGTVNWLSNFAVGLLFPFIQKSLDTYCFLVFATICITGAIYLYFVLPETKNRTYAEISQAFSKRNKAYPPEEKIDSAVTDGKINGRP [N61Q], the “effect of a mutation on the interaction” value is on record as “with no effect”.

In another assay the parent is B1. The note with it: with itm2b_human ITM2B. The source holds these as a separate data set.
In the case of MKLSKKDRGEDEESDSAKKKLDWSCSLLVASLAGAFGSSFLYGYNLSVVNAPTPYIKAFYQESWERRHGRPIDPDTLTLLWSVTVSIFAIGGLVGTLIVKMIGKVLGRKHTLLANNGFAISAALLMACSLQAGAFEMLIVGRFIMGIDGGVALSVLPMYLSEISPKEIRGSLGQVTAIFICIGVFTGQLLGLPELLGKESTWPYLFGVIVVPAVVQLLSLPFLPDSPRYLLLEKHNEARAVKAFQTFLGKADVSQEVEEVLAESRVQRSIRLVSVLELLRAPYVRWQVVTVIVTMACYQLCGLNAIWFYTNSIFGKAGIPPAKIPYVTLSTGGIETLAAVFSGLVIEHLGRRPLLIGGFGLMGLFFGTLTITLTLQDHAPWVPYLSIVGILAIIASFCSGPGGIPFILTGEFFQQSQRPAAFIIAGTVNWLSNFAVGLLFPFIQKSLDTYCFLVFATICITGAIYLYFVLPETKNRTYAEISQAFSKRNKAYPPEEKIDSAVTDGKINGRP [N61Q], the “effect of a mutation on the interaction” value was “disrupting interaction strength”.

In the next assay the parent is B2. Particulars: with itm2b_human ITM2B.
Consider MARKQNRNSKELGLVPLTDDTSHAGPPGPGRALLECDHLRSGVPGGRRRKDWSCSLLVASLAGAFGSSFLYGYNLSVVNAPTPYIKAFYQESWERRHGRPIDPDTLTLLWSVTVSIFAIGGLVGTLIVKMIGKVLGRKHTLLANNGFAISAALLMACSLQAGAFEMLIVGRFIMGIDGGVALSVLPMYLSEISPKEIRGSLGQVTAIFICIGVFTGQLLGLPELLGKESTWPYLFGVIVVPAVVQLLSLPFLPDSPRYLLLEKHNEARAVKAFQTFLGKADVSQEVEEVLAESRVQRSIRLVSVLELLRAPYVRWQVVTVIVTMACYQLCGLNAIWFYTNSIFGKAGIPPAKIPYVTLSTGGIETLAAVFSGLVIEHLGRRPLLIGGFGLMGLFFGTLTITLTLQDHAPWVPYLSIVGILAIIASFCSGPGGIPFILTGEFFQQSQRPAAFIIAGTVNWLSNFAVGLLFPFIQKSLDTYCFLVFATICITGAIYLYFVLPETKNRTYAEISQAFSKRNKAYPPEEKIDSAVTDGKINGRP [N90Q], for which the “effect of a mutation on the interaction” value is given as “with no effect”.
